In patent publication US20250002563A1:

Biological target: SARS-CoV-2 spike on pseudotyped virus particles (Wuhan-Hu-1 strain) (SARS-CoV-2) (UniProt P0DTC2)
Experiment: cell-based or functional assay

Substance	IC50, pseudovirus luciferase assay [pM]
homotrimeric Nb20	3
homotrimeric Nb21	1.3
